# Changes are numbered by the printed parent chain. Names and notes keep the numbering of the source. Values joined by “and” are separate entries in the source; they are usually repeats but may differ in a detail not shown here. Equal values may be shown once.
# T1: C-terminally FLAG-tagged human Gas6 recombinant protein (hGas6-F) (human, UniProt Q14393 31-678, gamma-carboxylated glutamic acid residues in the Gla domain (producer cells co-express rat VKOR and human GGCX); positions not given)
# T1 construct: also called human Gas6-F; human Gas6 protein
# T1 sequence: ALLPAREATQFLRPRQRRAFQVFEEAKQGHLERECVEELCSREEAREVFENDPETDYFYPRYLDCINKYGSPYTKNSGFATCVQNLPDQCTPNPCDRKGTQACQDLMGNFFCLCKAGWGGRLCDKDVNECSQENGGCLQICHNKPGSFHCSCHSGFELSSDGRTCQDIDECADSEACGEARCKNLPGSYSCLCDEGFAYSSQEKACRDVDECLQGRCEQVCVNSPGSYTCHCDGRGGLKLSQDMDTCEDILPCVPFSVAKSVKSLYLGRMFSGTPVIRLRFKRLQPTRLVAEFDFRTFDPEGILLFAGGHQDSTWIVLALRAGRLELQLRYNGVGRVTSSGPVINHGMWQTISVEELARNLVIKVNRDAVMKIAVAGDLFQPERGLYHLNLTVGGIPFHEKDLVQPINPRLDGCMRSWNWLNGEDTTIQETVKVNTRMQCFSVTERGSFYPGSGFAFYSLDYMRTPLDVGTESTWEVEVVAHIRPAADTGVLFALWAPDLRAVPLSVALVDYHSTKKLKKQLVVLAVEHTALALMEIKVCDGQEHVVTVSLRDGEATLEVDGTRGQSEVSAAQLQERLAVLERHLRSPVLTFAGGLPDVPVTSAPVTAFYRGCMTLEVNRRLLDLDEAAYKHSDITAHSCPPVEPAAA
# B1: hzKM5320 LV5HV2 antibody (antibody, V domains shown)
# VH: QVQLVQSGSELKKPGASVKVSCKASGYTFTNYGMNWVRQAPGQGLEWMGWINTETGEPTYSDDFKGRFVFSLDTSVSTAYLQISSLKAEDTATYFCAREDGYYGTLDYWGQGTTVTVSS
# VL: DIVMTQSPDSLAVSLGERVTINCKASQSVSNDVAWYQQKPGQSPKVLIYYASNRYTGVPDRFSGSGSGTDFTFTISSVQAEDVAVYFCQQDYSSPWTFGQGTKLEIK
# notes: Humanized; variant human IgG4 constant region (EU S228P, L235E, R409K), human kappa; also called kzKM5320 LV5HV2; A-20
# B2: hzKM5320 LV1bHV0 antibody (antibody, V domains shown)
# VH: B1 VH with T93V, F95Y
# VL: B1 VL with I2V, V46L, F73L, F87Y
# notes: Humanized; variant human IgG4 constant region (EU S228P, L235E, R409K), human kappa; also called A-04
# B3: hzKM5321 LV6HV2b antibody (antibody, V domains shown)
# VH: QVHLVQSGPELKKPGASVKISCKASGYTFTNYGMNWVRQAPGQGLEWMGWINTNTGEPTYTEEFKGRFVFSLDTSVTTSYLQISTLKAEDTATYFCARDEGWFVYWGQGTLVTVSS
# VL: ETTLTQSPSSLSVSTGDRVTITCITSTDIDDDMNWYQQKPGKPPKLLISEGNTLRPGVPSRFSSSGSGTDFTLTISSTQPEDFADYYCLQTDSVPLTFGQGTKVEIK
# notes: Humanized; variant human IgG4 constant region (EU S228P, L235E, R409K), human kappa; also called B-24; LV6HV2b
# B4: hzKM5321 LV7bHV0 antibody (antibody, V domains shown)
# VH: B3 VH with P9S, T93V
# VL: B3 VL with L4V, T15V, P43A, L73F, V104L
# notes: Humanized; variant human IgG4 constant region (EU S228P, L235E, R409K), human kappa; also called B-10; LV7bHV0
# B5: KM5321 chimeric antibody (antibody, V domains shown)
# VH: QIQLVQSGPELKKPGETVKISCRASGYTFTNYGMNWVKQAPGKGLKWMGWINTNTGEPTYTEEFKGRFAFSLETSATTAYLQINDLKNEDTATYFCARDEGWFVYWGQGTLITVSA
# VL: ETTVTQSPASLSVATGEKVTIRCITSTDIDDDMNWYQQKPGEPPKLLISEGNTLRPGVPSRFSSSGYGTDFVFTIENTLSEDVADYYCLQTDSVPLTFGAGTKLELK
# notes: also called KM5321 chimera; B-01
# B6: hzKM5320 LV0HV0 antibody (antibody, V domains shown)
# VH: B1 VH with T93V, F95Y
# VL: B1 VL with I2V, V46L, F73L, V78L, F87Y
# notes: Humanized; variant human IgG4 constant region (EU S228P, L235E, R409K), human kappa; also called A-02
# B7: hzKM5321 LV6HV0 antibody (antibody, V domains shown)
# VH: B3 VH with P9S, T93V
# VL: B3 VL
# notes: Humanized; variant human IgG4 constant region (EU S228P, L235E, R409K), human kappa; also called B-08; LV6HV0
# B8: hzKM5321 LV7bHV7 antibody (antibody, V domains shown)
# VH: B3 VH with V2I, R38K, E46K, S79A, V112I
# VL: B3 VL with L4V, T15V, P43A, L73F, V104L
# notes: Humanized; variant human IgG4 constant region (EU S228P, L235E, R409K), human kappa; also called B-20; LV7bHV7
# B9: hzKM5321 LV6HV4a antibody (antibody, V domains shown)
# VH: B3 VH with V2I, S79A, T93V, V112I
# VL: B3 VL
# notes: Humanized; variant human IgG4 constant region (EU S228P, L235E, R409K), human kappa; also called B-27; LV6HV4a
# B10: hzKM5321 LV6HV3a antibody (antibody, V domains shown)
# VH: B3 VH with E46K
# VL: B3 VL
# notes: Humanized; variant human IgG4 constant region (EU S228P, L235E, R409K), human kappa; also called B-25; LV6HV3a
# B11: hzKM5321 LV6HV2a antibody (antibody, V domains shown)
# VH: B3 VH with P9S, R38K, E46K, T93V
# VL: B3 VL
# notes: Humanized; variant human IgG4 constant region (EU S228P, L235E, R409K), human kappa; also called B-23; LV6HV2a
# B12: hzKM5321 LV7aHV0 antibody (antibody, V domains shown)
# VH: B3 VH with P9S, T93V
# VL: B3 VL with L73F
# notes: Humanized; variant human IgG4 constant region (EU S228P, L235E, R409K), human kappa; also called B-09; LV7aHV0
# B13: hzKM5321 LV9HV0 antibody (antibody, V domains shown)
# VH: B3 VH with P9S, T93V
# VL: B3 VL with L4V, L73F, V104L
# notes: Humanized; variant human IgG4 constant region (EU S228P, L235E, R409K), human kappa; also called B-11; LV9HV0
# B14: hzKM5321 LV9HV7 antibody (antibody, V domains shown)
# VH: B3 VH with V2I, R38K, E46K, S79A, V112I
# VL: B3 VL with L4V, L73F, V104L
# notes: Humanized; variant human IgG4 constant region (EU S228P, L235E, R409K), human kappa; also called B-21; LV9HV7
# B15: hzKM5321 LV6HV4b antibody (antibody, V domains shown)
# VH: B3 VH with R38K, E46K
# VL: B3 VL
# notes: Humanized; variant human IgG4 constant region (EU S228P, L235E, R409K), human kappa; also called B-28; LV6HV4b
# B16: hzKM5321 LV6HV5 antibody (antibody, V domains shown)
# VH: B3 VH with V2I, P9S, R38K, E46K, S79A, T93V, V112I
# VL: B3 VL
# notes: Humanized; variant human IgG4 constant region (EU S228P, L235E, R409K), human kappa; also called B-29; LV6HV5
# B17: hzKM5321 LV6HV7 antibody (antibody, V domains shown)
# VH: B3 VH with V2I, R38K, E46K, S79A, V112I
# VL: B3 VL
# notes: Humanized; variant human IgG4 constant region (EU S228P, L235E, R409K), human kappa; also called B-18; LV6HV7
# B18: hzKM5321 LV6HV3b antibody (antibody, V domains shown)
# VH: B3 VH with P9S, R38K, E46K
# VL: B3 VL
# notes: Humanized; variant human IgG4 constant region (EU S228P, L235E, R409K), human kappa; also called B-26; LV6HV3b
# B19: hzKM5321 LV7aHV7 antibody (antibody, V domains shown)
# VH: B3 VH with V2I, R38K, E46K, S79A, V112I
# VL: B3 VL with L73F
# notes: Humanized; variant human IgG4 constant region (EU S228P, L235E, R409K), human kappa; also called B-19; LV7aHV7
# Biological target: T1, C-terminally FLAG-tagged human Gas6 …
# Assay: ELISA, hGas6-F captured by anti-FLAG, anti-human IgG-HRP
# Description: First, 2 μg/mL anti-FLAG antibody [Monoclonal ANTI-FLAG M2 antibody produced in mouse (manufactured by Sigma-Aldrich Co. LLC) diluted with PBS (manufactured by Nacalai Tesque, Inc.)] was dispensed at 50 μL/well to a 96-well plate for ELISA (manufactured by Nalge Nunc International), and the plate was left standing overnight at 4° C. for adsorption. After removal of the immobilization solution, 1% BSA-PBS (manufactured by Nacalai Tesque, Inc.) was added thereto at 300 μL/well, and the plate was left standing at room temperature for 1 hour for blocking and washed five times with Tween 20-PBS (manufactured by Wako Pure Chemical Industries Ltd.).
# In order to reduce the backgrounds of measurement values, the diluted secondary antibody solution was mixed with 50 μg/mL of an anti-DNP mouse IgG1 antibody and incubated at room temperature for 1 hour for use.
row,EC50 [µg/mL],Binder
1,0.0122,B1
2,0.0191,B2
3,0.00595,B3
4,0.00669,B4
5,0.00678,B5

# Biological target: T1, C-terminally FLAG-tagged human Gas6 …
# Assay: SPR Biacore T100, captured antibody, Gas6 analyte, first test
# Description: The measurement instrument used was Biacore® T100 (manufactured by GE Healthcare Japan Corp.).
# (§1) An anti-human IgG antibody was immobilized on a CM5 sensor chip (manufactured by GE Healthcare Japan Corp.) using Human Antibody Capture Kit (manufactured by GE Healthcare Japan Corp.) according to the attached manual. Each test antibody adjusted to 1 μg/mL was added for 10 seconds at a flow rate of 10 μL/min to flow cells. […] The measurement was performed by the […] method. The obtained sensorgram was analyzed using Bia Evaluation Software (manufactured by GE Healthcare Japan Corp.), and the kinetic constant of each antibody was calculated.
fold increase of KD against the KM5320 chimeric antibody [fold],fold increase of kd against the KM5320 chimeric antibody [fold],Binder
≥ 10,~6,B6

# Biological target: T1, C-terminally FLAG-tagged human Gas6 …
# Assay: SPR Biacore T100, captured antibody, Gas6 analyte, retest
# Description: as §1
# In this retest, unlike the test mentioned above, the number of antibodies to be measured and variations in the concentration of the analyte were decreased, and the assay was conducted for a short time (within several hours), instead of sufficiently leaving standing the analyte added to the vial. […] This minimizes the adsorption of the analyte to the vial and permits more accurate calculation of ka and KD values than that in the test mentioned above.
Kd [nM],koff [s⁻¹],kon [M⁻¹ s⁻¹],Binder
1.29,0.000197,152000,B1
16.5,0.00149,90000,B2
0.484,0.000154,319000,B3
0.403,0.000142,353000,B4
0.202,7.66e-05,380000,B5

# Biological target: T1, C-terminally FLAG-tagged human Gas6 …
# Assay: SPR Biacore T100, captured antibody, Gas6 analyte, first test
# Remark: another data set of the same source
# Description: as §1
Kd [nM],koff,kon [M⁻¹ s⁻¹],Binder
< 13.8,0.000924 s⁻¹,> 66800,B6
< 2.13,0.000158 s⁻¹,> 74300,B1
< 16,0.00115 s⁻¹,> 72000,B2
< 1.19,0.000159 s⁻¹ and 0.000238 s⁻¹,> 134000,B7
< 3.07,0.000329 s⁻¹,> 107000,B8
< 3.2,0.000341 s⁻¹,> 106000,B9
< 2.15,0.000226 s⁻¹,> 105000,B10
< 2.07,0.000212 s⁻¹,> 102000,B11
< 1.41,0.000188 s⁻¹,> 133000,B12
< 1.96,0.000247 s⁻¹,> 126000,B13
< 2.33,0.000239 s⁻¹,> 103000,B3
< 3.33,0.000352 s⁻¹,> 106000,B14
< 1.92,0.000204 s⁻¹,> 106000,B15
< 2.61,0.000277 s⁻¹,> 106000,B16
< 2.59,0.000281 s⁻¹ and 0.000278 s⁻¹,> 107000,B17
< 1.88,0.0002 s⁻¹,> 106000,B18
< 2.91,0.000299 s⁻¹,> 103000,B19
< 1.88,0.000242 s⁻¹,> 129000,B4
< 1.16,0.000141 s⁻¹ and 0.000137 s⁻¹,> 121000,B5

# Biological target: T1, C-terminally FLAG-tagged human Gas6 …
# Assay: competitive ELISA, inhibition of hGas6-F binding to immobilised hAxl-hFc
row,IC50 [µg/mL],Binder
1,0.0336,B1
2,0.742,B2
3,0.0126,B3
4,0.0118,B4
5,0.0123,B5

# From patent US20180339041A1 (Kyowa Kirin, published 2018)
